{"source": "paper PMC9406036", "about": "“The Catalytic Domain Mediates Homomultimerization of MT1-MMP and the Prodomain Interferes with MT1-MMP Oligomeric Complex Assembly” (Biomolecules, 2022)", "target": "the molecule itself", "assay": "SEC; preparative Sephacryl S-200 gel filtration (120 mL), IMAC-purified protein at about 1 mg/mL, 1 mL injected after a 0.22 µm filter, 50 mM Tris pH 7.4, 150 mM NaCl, 5 mM CaCl2, 10 µM CT1746; sizes from a calibration curve; fractions checked by SDS-PAGE", "note": "Several values for one entry are separate records, joined by “and”; a condition that tells them apart may be missing. Equal entries are not always repeated."}
{"protein": "WT-Cat-L (catalytic domain with the linker of MT1-MMP), secreted without the prodomain (domain or fragment, human MT1-MMP (MMP-14) catalytic domain with the linker; Found as monomer, dimer and higher multimers on gel filtration; also called Cat-L construct; source: Drosophila S2 insect cells, purified (IMAC, Sephacryl S-200)) not shown", "values": [{"measurement": "stoichiometry N", "value": "2 and > 3"}]}
